For test [1], the target named is T1, recombinant full-length PfCSP (strain NF54) (Plasmodium falciparum NF54, UniProt P19597).
T1 construct: also called NF54 PfCSP; Pf circumsporozoite protein; not shown: His tag, C-terminal, kept
The test can be described thus: BLI; Octet RED96; His-tagged PfCSP on Ni-NTA biosensors, 2-fold dilutions of mAb; PBS pH 7.4, 0.01% BSA, 0.002% Tween 20; 1:1 binding model. The note with it: both partners purified.

The next test has as its target T2, NANP6 peptide (Plasmodium falciparum NF54).
T2 construct: source: synthetic peptide (CPC Scientific)
The test can be described thus: SPR; Carterra LSA; mAb amine-coupled to a CMD200M chip, peptide titrated in 2-fold steps up to 8 ug/mL without regeneration; 25 C; HBSTE (10 mM HEPES pH 7.4, 150 mM NaCl, 3 mM EDTA, 0.01% Tween 20); 1:1 Langmuir model; mean of triplicates; KD includes avidity for antigens with several repeats. The note with it: both partners purified.

Test [2] has as its target recombinant full-length PfCSP (Plasmodium falciparum circumsporozoite protein, strain NF54) (Plasmodium falciparum NF54, UniProt P19597). Briefly: cell-based or functional assay.

T1 sequence (P19597 20-375): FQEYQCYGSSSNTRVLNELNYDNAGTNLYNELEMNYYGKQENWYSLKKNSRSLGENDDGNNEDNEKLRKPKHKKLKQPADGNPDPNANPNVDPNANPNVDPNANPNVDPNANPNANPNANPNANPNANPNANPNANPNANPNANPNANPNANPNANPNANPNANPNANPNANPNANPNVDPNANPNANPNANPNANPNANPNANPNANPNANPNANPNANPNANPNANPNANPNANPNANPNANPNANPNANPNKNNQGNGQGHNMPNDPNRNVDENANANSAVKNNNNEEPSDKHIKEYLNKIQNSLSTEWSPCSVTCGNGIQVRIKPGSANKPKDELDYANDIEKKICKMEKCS
recombinant full-length PfCSP (Plasmodium falciparum circumsporozoite protein, strain NF54), sequence (P19597 20-375): as above

B1: mAb 317 (antibody, V domains shown)
VH: QMQLVESGGGVVQPGRSLRLSCTASGFTFSTYAMHWVRQSPGQGLQWVAVISYHSTNKYYEDSVRGRFTISRDNSKNTLYLQMNSLRAEDTAVYYCARDGYSSSFFDFWGQGTLVTVSS
VL: DIQMTQSPSTLSASVGDRVAITCRASQSISRWLAWYQQQPGKAPKLLMSGASVLESGVPSRFSGSGSGTEFTLTISSLQPDDFATYYCQHYNSYFVTFGQGTKVEIK
notes: also called 31715 (label with citation mark 15)
On to B1, for which the kon in test [1] worked out at 27200 M⁻¹ s⁻¹. Besides, in the test with NANP6 peptide, the Kd was determined as 0.404 nM, the koff stood at 0.000118 s⁻¹ and the association rate constant (kon) was determined as 292000 M⁻¹ s⁻¹.

B2: mAb CIS43 (antibody, V domains shown)
VH: QVQLVQSGAEVKKPGASVKVSCKASGYTFTSYAIHWVRQAPGQRLEWMGWIKAGNGNTRYSQKFQDRVTITRDTSTTTAYMELSSLRSEDTAVYYCALLTVLTPDDAFDIWGQGTMVTVSS
VL: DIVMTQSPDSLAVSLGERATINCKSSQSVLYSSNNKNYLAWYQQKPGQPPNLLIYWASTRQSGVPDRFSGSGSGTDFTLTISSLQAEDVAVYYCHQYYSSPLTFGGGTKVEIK
notes: also called CIS4317 (label with citation mark 17)
Take B2: the association rate constant (kon) in test [1] amounted to 444000 M⁻¹ s⁻¹. Also, in the test with NANP6 peptide, the Kd came to 54.9 nM, the koff stood at 0.00974 s⁻¹ and the kon was 179000 M⁻¹ s⁻¹.

B3: mAb Ky224 (human IgG1) (antibody, V domains shown)
VH: QVQLVESGGGVVQPGRSLRLSCAASGFTFSVYGMHWVRQAPGKGLEWVAVIWYDGSNKIYADSVKGRFTISRDNSKNTLYLQMDSLSAADTAVYYCAKIGSSSFDYWGQGTLVIVSS
VL: DIVMTQTPLSSPVTLGQPASISCRSSQSLVHSNGITYLSWLQQRPGQPPRLLLYEISNRFSGVPDRFSGSGTGTDFTLKISRVEAEDVGVYYCMQTTQFPITFGQGTRLEIK
Take B3: the other in test [2] was below 1.5 µg/mL.

B4: mAb 2541 (antibody, V domains shown)
VH: QVQLVESGGGVVQPGRSLRLSCAASGFTFSSYGMHWVRQTTGKGLEWVAIIWHDGSKKYYADSVKGRLTISRDNSKNTLYLQMNSLRVEDTALYYCARVGDYSDFKYGAFDIWGQGTMVTVSS
VL: DIQMTQSPSTLSASVGDRVTITCRASQSISSWLAWYQQKPGKAPNLLIYKASTLESGVPSRFSGSGSGTEFTLTISSLQPDDFATYYCQQYNSYWTFGQGTRVEIK
notes: also called 254121 (label with citation mark 21)
As to B4, in test [1], the kon came out at 71000 M⁻¹ s⁻¹. In the test with NANP6 peptide, this molecule gave a Kd of at most 0.133 nM, a koff of at most 1e-05 s⁻¹ and an on-rate (kon) of 86600 M⁻¹ s⁻¹.

What is called kon is the second-order rate constant of association. What is called koff is the rate constant with which the complex falls apart. Low readings indicate slow dissociation, high ones fast dissociation.

The values above are taken from PMC10720262 (Cell Reports, 2023).
